B1: HEEH_KT_rd6_3632 (parent)
chain: DAEELIELVERALKEGREIILLGVRITSEEAGKWFIEWIRRFL
B2: EEHEE_rd4_0363 (parent)
chain: VTVDIKGMEYHFDNPEEAKKFAERMAKELGGELKVENGTLKVE

Variants of: B1
Assay: folding stability dG (cDNA display proteolysis); higher = more stable
Conditions: PBS, room temperature

Folding stability dG [kcal/mol]: each site, then its substitutions
L8: V 3.26
S28: W 3.91
R41: K 3.76
F42: P 2.5; T 3.35
R11: W 3.66; G 3.19
I20: L 3.35; H 3.17
E10: R 4.03; I 4.3
E30: T 3.57; L 3.91
V24: T 3.25
E29: D 3.67; Y 3.96; T 3.83; V 3.79
I36: T 3.09
G23: H 3.6; C 3.82
I26: H 3.09
E15: I 3.62; P 3.21; F 3.64; K 3.45
T27: Q 3.44; A 3.94
K14: P 3.27; H 3.49
L21: T 2.78
A12: P 2.88; R 3.17
W38: I 3.2; H 2.82
K33: G 3.34
G16: M 4.09; A 3.84
V9: W 3.15
E4: S 3.89; D 3.65
R25: A 3.68; N 3.44; F 3.79
L5: F 3.6; M 3.56
I6: W 3.99; N 3.11; S 3.18
G32: N 3.38
L22: C 4.73
L13: M 3.67; P 2.88; D 2.97
R40: A 3.39; Q 3.32
E7: Y 3.77; I 3.79
A2: Q 3.55; F 4.2
R17: M 3.6

Variants of: B2
Assay: as above
Conditions: PBS, room temperature

Folding stability dG [kcal/mol] of substitutions, site by site:
V35: T 1.72; D 1.59; K 1.3; H 1.57; I 2.27; C 2.78; M 2; S 1.61; R 1.25; E 1.96; A 1.53; L 1.93; N 1.73; W 3.09; F 2.38; Y 2.48; P 0.972; Q 1.62; G 1.2
E32: T 2.81; R 2.23; G 1.4; H 2.45; C 2.56; I 2.89; F 2.82; Q 2.41; K 2.43; N 2.21; W 2.97; L 2.32; D 1.67; P 0.989; A 2.15; Y 2.96; S 2.48; M 2.31; V 2.84
G30: I 1; Q 1.57; A 1.43; R 1.6; H 1.74; L 1.34; K 1.66; E 1.41; V 1.01; S 1.5; M 1.55; N 1.93; W 1.17; C 2.23; T 1; P 0.76; F 1.43; Y 1.27; D 1.52
V42: C 1.4; N 0.799; S 0.916; Y 0.816; T 0.943; W 1.06; I 2; P 0.879; D 0.806; H 0.832; G 0.841; M 0.942; L 1.74; E 0.783; Q 0.74; F 1.02; R 0.352; K 0.582; A 0.786
N37: C 2.07; R 1.14; W 0.999; I 1.14; S 1.38; Q 1.46; D 1.63; L 1.52; G 1.97; P 1.26; A 1.4; M 1.3; F 1.41; E 1.52; H 1.52; K 1.45; Y 1.19; T 1.18; V 1.14
L29: V 1.14; W 1.34; Q 1.06; Y 1.47; P 0.59; R 0.668; S 1.12; T 1.37
G38: R 0.518; A 1.13; H 1.25; F 0.552; N 1.68; S 1.19; Q 1.21; P 0.815; Y 0.501; T 1.17; C 1.98; W 0.438; D 1.3; K 0.662; L 1.02; I 0.967; V 0.725; M 1.1; E 1.13
G31: I 1.88; T 1.38; N 0.953; M 2.32; S 1.39; A 2.15; C 2.36; H 1.27; W 2.33; K 0.977; L 2.57; R 0.865; D 0.935; E 1.23; F 2.03; Q 1.32; V 1.85; P 0.726; Y 2.12
K34: L 1.77; I 2.28; N 1.41; G 1.03; F 2; W 1.82; R 2.21; T 1.9; P 0.802; Q 1.42; H 1.82; E 1.02; D 1.01; V 2.26; Y 1.98; A 1.33; M 1.66; C 1.95; S 1.68
E36: Q 1.89; Y 1.86; A 1.74; T 1.78; R 1.45; M 1.84; W 1.52; K 1.4; I 2.43; C 2.26; H 1.83; N 1.59; S 1.73; D 1.77; P 0.792; G 1.61; F 1.88; L 2.02; V 2.54
T39: C 1.89; A 1.6; I 2.81; L 2.13; N 1.84; K 2.43; W 1.66; E 1.2; M 2.24; H 1.93; D 1.17; G 1.4; F 1.88; V 2.77; P 0.866; S 1.69; Y 1.95; R 2.17; Q 1.91
K41: W 1.65; H 1.61; A 1.09; Y 1.92; R 2.17; L 1.62; Q 1.24; V 2.02; T 1.73; I 2.1; D 0.86; F 2; S 1.45; M 1.63; E 0.957; G 1.01; N 0.986; C 1.64; P 0.852
L33: Y 1.43; D 0.762; S 0.81; T 1.13; M 1.61; W 1.78; N 0.799; E 0.789; F 1.47; I 2.48; R 0.462; K 0.659; A 1.07; Q 0.872; V 2.81; P 0.732; H 0.949; G 0.82
E43: P 1.16; C 2.81; L 2.66; W 2.64; M 2.49; A 1.94; V 3.14; K 1.89; H 2.21; G 1.91; T 2.38; D 1.91; R 2.04; S 2.11; I 3.07; F 2.75; Y 2.91; N 1.85; Q 2.07
L40: A 0.864; K 0.532; P 0.807; I 2.6; Q 0.884; C 1.47; R 0.347; S 0.813; V 1.35; G 0.861; M 1.67; E 0.788; N 0.85; D 0.757; Y 2.27; T 0.992; H 0.973; F 1.94; W 2.28

From the MegaScale stability set (Tsuboyama et al. 2023)
